In patent publication US20250002588A1 (DIAGONAL THERAPEUTICS, published 2025):

B1: DGL651 (bispecific antibody)
chain 1: not shown
chain 2: EVQLLESGGGLVQPGGSLRLSCAASGFTFSDYYMTWIRQAPGKGLEWVSSISGGSTYYADSRKGRFTISRDNSENTLYLQMNSLRAEDTAVYYCARDFGVAGWFGQYGMDVWGQGTLVTVSSGGGGSGGGGSGGGGSQSVLTQPPSASGTPGQRVTISCTGSSSNIGAGYDVHWYQQLPGTAPKLLIYRSNQRPSGVPDRFSGSKSGTSASLAISGLRSEDEADYYCSSYAGNYNLVFGGGTKLTVLDKTHTCPPCPAPEAAGAPSVFLFPPKPKDTLMISRTPEVTCVVVDVSHEDPEVKFNWYVDGVEVHNAKTKPREEQYNSTYRVVSVLTVLHQDWLNGKEYKCKVSNKALPAPIEKTISKAKGQPREPQVCTLPPSRDELTKNQVSLSCAVKGFYPSDIAVEWESNGQPENNYKTTPPVLDSDGSFFLVSKLTVDKSRWQQGNVFSCSVMHEALHNHYTQKSLSLSPGWSHPQFEK
B2: DGL652 (bispecific antibody)
chain 1: not shown
chain 2: EVQLLESGGGLVQPGGSLRLSCAASGFTFSDYYMTWIRQAPGKGLEWVSSISGGSTYYADSRKGRFTISRDNSENTLYLQMNSLRAEDTAVYYCARDFGVAGWFGQYGMDVWGQGTLVTVSSGGGGSGGGGSGGGGSQSVLTQPPSASGTPGQRVTISCTGSSSNIGAGYDVHWYQQLPGTAPKLLIYRSNQRPSGVPDRFSGSKSGTSASLAISGLRSEDEADYYCSSYAGNYNLVFGGGTKLTVLDKTHTCPPCPAPEAAGAPSVFLFPPKPKDTLMISRTPEVTCVVVDVSHEDPEVKFNWYVDGVEVHNAKTKPREEQYNSTYRVVSVLTVLHQDWLNGKEYKCKVSNKALPAPIEKTISKAKGQPREPQVCTLPPSRDELTKNQVSLSCAVKGFYPSDIAVEWESNGQPENNYKTTPPVLDSDGSFFLVSKLTVDKSRWQQGNVFSCSVMHEALHNHYTQKSLSLSPGWSHPQFEK
B3: DGL653 (bispecific antibody)
chain 1: not shown
chain 2: EVQLLESGGGLVQPGGSLRLSCAASGFTFSDYYMTWIRQAPGKGLEWVSSISGGSTYYADSRKGRFTISRDNSENTLYLQMNSLRAEDTAVYYCARDFGVAGWFGQYGMDVWGQGTLVTVSSGGGGSGGGGSGGGGSQSVLTQPPSASGTPGQRVTISCTGSSSNIGAGYDVHWYQQLPGTAPKLLIYRSNQRPSGVPDRFSGSKSGTSASLAISGLRSEDEADYYCSSYAGNYNLVFGGGTKLTVLDKTHTCPPCPAPEAAGAPSVFLFPPKPKDTLMISRTPEVTCVVVDVSHEDPEVKFNWYVDGVEVHNAKTKPREEQYNSTYRVVSVLTVLHQDWLNGKEYKCKVSNKALPAPIEKTISKAKGQPREPQVCTLPPSRDELTKNQVSLSCAVKGFYPSDIAVEWESNGQPENNYKTTPPVLDSDGSFFLVSKLTVDKSRWQQGNVFSCSVMHEALHNHYTQKSLSLSPGWSHPQFEK
B4: DGL654 (bispecific antibody)
chain 1: EVQLLESGGGLVQPGGSLRLSCAASGFTFSDYYMNWIRQAPGKGLEWVSSISGGSTYYADSVKGRFTISRDNSENTLYLQMNSLRAEDTAVYYCARDFGVAGWFGQFGMDVWGQGTLVTVSSGGGGSGGGGSGGGGSQSVLTQPPSASGTPGQRVTISCTGSSSNIGAGYDVHWYQQLPGTAPKLLIYRSNQRPSGVPDRFSGSKSGTSASLAISGLRSEDEADYYCSSYAGNYNLVFGGGTKLTVLDKTHTCPPCPAPEAAGAPSVFLFPPKPKDTLMISRTPEVTCVVVDVSHEDPEVKFNWYVDGVEVHNAKTKPREEQYNSTYRVVSVLTVLHQDWLNGKEYKCKVSNKALPAPIEKTISKAKGQPREPQVCTLPPSRDELTKNQVSLSCAVKGFYPSDIAVEWESNGQPENNYKTTPPVLDSDGSFFLVSKLTVDKSRWQQGNVFSCSVMHEALHNHYTQKSLSLSPGWSHPQFEK
chain 2: not shown

What follows are binders tested against ALK-1/BMPR-2 receptor pair of the PathHunter U2Os dimerization cells (DiscoverX 93-0962C3) (UniProt P37023 22-503; Q13873 27-1038) (assay: cell-based or functional assay).
Sequence of ALK-1/BMPR-2 receptor pair of the PathHunter U2Os dimerization cells (DiscoverX 93-0962C3) (P37023 22-503, chain 1 of 2): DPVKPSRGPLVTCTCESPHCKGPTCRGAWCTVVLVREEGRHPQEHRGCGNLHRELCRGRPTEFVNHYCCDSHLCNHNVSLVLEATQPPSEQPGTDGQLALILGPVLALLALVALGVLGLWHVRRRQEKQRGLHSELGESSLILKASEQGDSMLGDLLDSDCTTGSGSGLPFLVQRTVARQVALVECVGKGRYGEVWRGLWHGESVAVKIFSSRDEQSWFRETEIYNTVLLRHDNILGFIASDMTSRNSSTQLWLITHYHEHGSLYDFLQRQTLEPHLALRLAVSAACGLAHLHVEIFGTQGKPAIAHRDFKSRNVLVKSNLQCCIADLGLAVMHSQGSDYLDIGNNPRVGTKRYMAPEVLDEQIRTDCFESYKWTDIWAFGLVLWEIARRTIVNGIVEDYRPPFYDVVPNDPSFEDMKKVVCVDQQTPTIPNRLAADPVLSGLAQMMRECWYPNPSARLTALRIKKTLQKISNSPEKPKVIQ
Sequence of ALK-1/BMPR-2 receptor pair of the PathHunter U2Os dimerization cells (DiscoverX 93-0962C3) (Q13873 27-1038, chain 2 of 2): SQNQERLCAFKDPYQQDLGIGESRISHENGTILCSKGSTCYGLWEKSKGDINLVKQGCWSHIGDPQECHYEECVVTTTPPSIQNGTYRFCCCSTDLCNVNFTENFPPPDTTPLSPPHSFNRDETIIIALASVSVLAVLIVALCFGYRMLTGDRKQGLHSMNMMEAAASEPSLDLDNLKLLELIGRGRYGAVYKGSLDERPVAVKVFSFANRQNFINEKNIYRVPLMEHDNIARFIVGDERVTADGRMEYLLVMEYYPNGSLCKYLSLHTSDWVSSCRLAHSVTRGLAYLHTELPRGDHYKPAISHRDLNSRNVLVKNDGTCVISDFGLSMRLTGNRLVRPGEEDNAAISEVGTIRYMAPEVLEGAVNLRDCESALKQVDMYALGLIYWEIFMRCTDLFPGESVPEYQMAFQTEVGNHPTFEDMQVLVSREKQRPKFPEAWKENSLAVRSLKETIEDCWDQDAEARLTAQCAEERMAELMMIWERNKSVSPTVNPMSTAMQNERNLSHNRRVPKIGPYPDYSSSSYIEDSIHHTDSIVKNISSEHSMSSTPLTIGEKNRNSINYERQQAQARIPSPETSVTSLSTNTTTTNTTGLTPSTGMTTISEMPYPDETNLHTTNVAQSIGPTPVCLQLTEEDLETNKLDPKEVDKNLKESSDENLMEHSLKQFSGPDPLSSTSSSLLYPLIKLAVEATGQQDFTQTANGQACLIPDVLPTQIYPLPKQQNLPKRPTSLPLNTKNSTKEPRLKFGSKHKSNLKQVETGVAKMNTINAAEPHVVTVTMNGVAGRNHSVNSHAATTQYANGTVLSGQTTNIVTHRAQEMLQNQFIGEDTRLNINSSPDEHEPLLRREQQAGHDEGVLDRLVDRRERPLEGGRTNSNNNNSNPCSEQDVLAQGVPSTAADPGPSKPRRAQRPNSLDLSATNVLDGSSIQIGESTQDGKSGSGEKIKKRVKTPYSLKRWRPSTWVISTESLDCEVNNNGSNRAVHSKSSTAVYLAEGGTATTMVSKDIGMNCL

In order of rising “% Emax BMP9” value:
1. B3  58%
2. B2  60%
3. B1  72%
4. B4  76%

In order of rising “Emax (RLU)” value:
1. B3  1.43e+06 RLU
2. B2  1.48e+06 RLU
3. B4  1.87e+06 RLU
4. B1  1.76e+07 RLU
